In the RNAGym collection of RNA variant scans (doi:10.1073/pnas.2313332121):

B1: TPR t1 (parent)
chain: GACCAAUCUGCCCUCAGAGCUCGAGAACAUCUUCGGAUGCAGAGGAGGCAGGCUUCGGUGGCGCGAUAGCGCCAACGUCCUCAACCUCCAAUGCAUCCCACCACAUGAUGAUGCCUGAAGAGCCUUGGUUUUUUG

Variants of: B1
Experiment: polymerase ribozyme fitness, log enrichment relative to wild type (log ratio); higher = more active; in vitro selection for triplet polymerase activity
In short: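 Fitness compares each genotype's enrichment to that of the wild type on a logarithmic scale, averaging replicates with inverse-variance weights. The logarithm is base 2. Enrichment came from Illumina sequencing of input and output libraries after one triplicate round of in vitro selection, which included frozen incubation at −7 °C, of PCR-built, transcribed mutant libraries of each subunit of a heterodimeric triplet polymerase ribozyme. Only genotypes with ≥10 input reads and ≥1 read per output were kept.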

Variant | polymerase ribozyme fitness (log ratio)
G48C A75G | -0.575
C11G C88G G93C | -3.14
C12U A83C | 0.0344
C11G U109G | -4.69
C12G C13U G52U G61U C102U A121U G122C | -1.95
C22U A27U G45C U54G C56G G63C A121U | -5.28
C12G A26C G60U | -3.25
C70U C76U U106C U133G | -1.64
C73G C101U U112C G117C | -2.53
A41G G69A C85A | -5.81
G57A A100U | -1.61
A37G G52A | -1.1
A105C G120A A121U | -1.51
U7C G10C A83C C115U | -1.32
A6C C11G G36U C40G U106A U130A | -4.89
C80A C124A | -0.56
C13A G47A C64U G93U C101G U131A | -5.14
U9G G39A A121U U131C | 2.2
A41U A43U C72G G77C G93A C124G U131A | -0.181
U55C C56A A90G C94G G110C U116A A121G | -6.03
C62U G93A | -0.42
G63A G113A | -1.68
C3A C8A C12A G61A | -1.5
A43U C102A | -4.93

Variant | polymerase ribozyme fitness (log ratio)
C11U A18U C20U C56U C101A | -3.06
C3U C13U C34U G69U C85U | -2.76
C123A C124U | 2.15
A29G C101G | -4.66
G39A C70G | -3.16
C28G C82G C86A | -3.55
G39A U55A G77C A84C | -2.23
U38G G61C U96G G122A | -4.11
A66U C123A | 0.285
A50C U106A G110A G127C | -3.34
U14G A95U | -2.44
A6C C73G G93U G128U | -5.16
G48U G57A C62U U78C C114A U133G | -3.01
U21C A37C U81A | -3.15
C70G U78A | -2.44
G17A A43G | -3.39
C15U G63C | -2.18
C22U C115U | -4.01
G48U C72A C97G | -5.25
C40A G71U U131A | -2.31
C8U G61U A84C G120U | 1.93
A24G C102U | -3.7
C8A A26G C56G C115U | -1.74
G51U C72U | -3.99

Variant | polymerase ribozyme fitness (log ratio)
C13U C72A C101A C114A | -1.86
C70G C104U | -3.03
C28U C34U C73G C102U G110A | -0.0797
C40A C53U G63A | -2.24
G69A G113A G127C | -3.93
C70G A111G G135U | -4.58
C13G U59A C62G | -3.87
C8U A111C | 0.776
C73A G120U A121C | 0.179
U7C A43U G52A C53U C85A U87A | -4.57
G44U C73G C102U C124G | -1.03
G63A G93A C97U U130A | -2.59
A50C U55C U106G | -2.2
G77A A95G G120A | 0.0766
U96A U125G | -1.93
C56A C80U A111U | -4
C40U C80G | -5.42
C20A U32G G35C U59G G61A A74C | -4.63
G45A A74G C115G G127C | -4.14
C12U G36U | -0.34
C31G C53A G71U G107C | -1.67
A16U A24G C115G | -6.98
G17C G47A A95U | -5.58
U14C A46C C79U U106C | -3.22

Variant | polymerase ribozyme fitness (log ratio)
A6G U54C A66G C80U | -2.2
A5U A18U C88U | -2.74
C11U C34U | -3.97
C85U U133A | -0.839
U9C A16U C72G C88A A95C A111U | -6.59
C12U U32C U81A U112A | 0.32
C20U A83C U112G | -2.09
C20U C73G C114G | -1.71
C8A G10C A50U C72U | -1.02
A5G U32G A50C C101U G113C C114U U131C | -5.64
G63A U133A | -0.918
C86G U112A G117U G120A U126A | -5.82
C12A G117A | -1.29
A2U C82U C86G A121G | -0.832
U9A C115G | 1.95
A16C C72A G110U | -3.99
G36U C56U C115G | -3.57
U33C A37C | -6.92
A6U C11U C28U C34A C73A G110A | 0.315
C8G G39C C62A | -0.386
G60A G135U | -0.711
G44C G61C | -3.07
A26G C86U | -2.13
C11U A24G G47U G77U U116C | -7.91

Variant | polymerase ribozyme fitness (log ratio)
C53U A74G C98U | -1.16
C11G U32G U125A U126G | -6.54
C3U G45U U55A G60A U81A | -1.52
G44C C72A | -0.169
C80U A84U C89U A119G C123A | 0.318
A29G A46U G69U C86U | -2.23
U7A A66G U87C C94U G110U | -2.5
A27U C53G A66G | -4.36
C72U C79U U96A G113U | -4.45
G35U G69A | -7.16
C12U C13U | -0.904
G42U C88A U92A G120A | -1.96
C11U U109G | -5.84
U21G G61U G120U C123A | -1.78
C4A C13U G63C U81A | -2.72
G17A G60U C97U | -4.13
C12A C70A G127U | -2.31
G63A G77C A119U | -2.08
U78G C89A | -3.29
G110C U133A | -4.65
G48A U87A U96A | -1.88
G39C G127C | -1.46
A26U C72U C123U | -2.2
C49G A74C G113A | -2.39

Variant | polymerase ribozyme fitness (log ratio)
C4G C12A | -1.87
C53G G110C | -4.65
G52C U125G | -1.59
C72U A108G | -1.96
G63U C123A | -0.845
U7C A66C G77C C88A | -2.34
G44C C53A C88U A100U | -0.527
C82U A83U A111U | -3.12
G10C C34A | -3.12
C49G G93A | -1.26
G52A C64A C101A C115A | -6.42
G42A C62U A84C | -3.09
A2C A5C C62A G128C | -2.75
C53A G127U | -0.16
C72G C124G | 1.51
G44U C123A | 0.184
C8G C62U A118U U131C | 1.45
C70G G135A | -3.36
G47A C56G | -1.29
U7C C12G | 0.687
G25A A121C | -4.05
G45C C102G A121U U126G G128U | -4.67
G60A U92A C104U U133A | -2.74
C12U C13G C20A A37G A46U G77A G120A | -2.45

Variant | polymerase ribozyme fitness (log ratio)
U67G C80G G113A | -6.86
G39A G42U C72A | -1.57
G10C G57C G117C | -4.35
G58C A118U G127C | -1.14
G63C U78C A105C | -3.52
C73G C86A | -1.38
C3A C114U | -3.65
A43G G71C U87G | -4.59
G36C A100U A111G | -1.04
C8G C13G A37C G52C C86U | -2.49
A37C A121U | 1.62
C8A G47U C49U G110U | -3.49
C12A G45C | -1.32
G61C G63C | -3.6
G52C A95G G120C U125A | -0.335
U87C C99A C101U U116C | -6.81
C8G A46U G117C | -1.21
C56U C70U U78G U125G | -1.77
C98A C123U | -4.06
C8A C20G G45U C73U C123G | -5.63
C70U G113A U131A | -0.868
C12U C13A G60C A121U | 1
U33C A37C G42U G69U A111C C115A G127C U133G | -5.26
